# Test results reported in US20180214548A1 (SHANGHAI YUNYI HEALTHCARE AND TECHNOLOGY, published 2018).
# Columns and labels:
# [1] = target: T1, human PD-1^ECD-hFc protein (Immunogen A) (human, UniProt Q15116 25-167); assay: BLI Octet Red 96, biotinylated PD-1ECD-hFc on streptavidin sensor
# T1 construct: also called PD-1-hFc; hPD-1^ECD-hFc; not shown: human IgG Fc fragment (hFc)
# Procedure: Dissociation constants were determined by Octed red 96 (Fortiebio). The detailed operation and methods were followed according to the specifications of the instrument provided by the manufacturer. Briefly, a streptavidin sensor (SA sensor, Fortiebio) was used for the affinity determination. […] The reaction mixture was further incubated in PBS buffer (pH7.4) containing 0.1% (v/w) BSA and 0.02% (v/v) Tween20 at 30° C. for 5 minutes. […] The affinity, association and dissociation constants were determined using Octet User software, and the results are shown in Table 12.
# [2] = target: T2, cyno PD-1, full length, on CHO-K1 cells (cyno monkey, UniProt B0LAJ3 25-288); assay: flow cytometry on CHO-K1-cPD-1 cells
# T2 construct: also called CHO-K1-cPD-1; cPD-1
# Text: CHO-K1 cells were stably transfected with pIRES plasmid containing the nucleic acid sequence encoding full length human PD-1 (see Example 2, step 2) to generate CHO-K1 cells stably expressing human PD-1 (herein referred to as CHO-K1-hPD-1 cells). Other CHO-K1 were stably transfected with pIRES plasmid containing the nucleic acid sequence encoding full length cyno PD-1 to generate CHO-K1 cells stably expressing cyno PD-1 (herein referred to as CHO-K1-cPD-1 cells). CHO-K1-hPD-1 and CHO-K1-cPD-1 cells were cultured and expanded in T-75 culture flasks to 90% confluence. The culture media was aspirated, and the cells were washed twice with HBSS (Hanks Balanced Salt Solution, Invitrogen). The cells were treated with enzyme-free cell dissociation solution (Versene solution, Invitrogen) and collected. The cells were then washed twice with HBSS, cell counts were determined, and cells were resuspended with HBSS at 2×10⁶ cells/mL. Goat serum was added to the cell suspension to a final concentration of 1%, and the cells were blocked for 30 minutes on ice and then washed twice with HBSS. The cells were collected after centrifugation and resuspended in FACS buffer (HBSS+1% BSA, v/v) at 2×10⁶ cells/mL. 100 uL of the cell suspension were then added to each well of 96-well plate. 100 uL of purified anti-PD-1 antibodies from Example 2 were added to each well of the 96-well plate and incubated for 2 hours on ice. […] The samples were washed three times with FACS buffer, and 100 uL fixation buffer (4% paraformaldehyde v/v) were added to each well and incubated for 10 minutes. The cells were then washed twice with FACS buffer and resuspended in 100 uL FACS buffer. The mean fluorescence intensity (MFI) was determined using FACS Calibur (BD), and the results are shown in FIGS. 7-8 and in Tables 10-11.
# [3] = target: T3, human PD-1, full length, on cells (human, UniProt Q15116 25-288); assay: flow cytometry on CHO-K1-hPD-1 cells
# T3 construct: whole, on cells; in the lymphocyte assays the natural PD-1 of human T cells/PBMCs; also called hPD-1; CHO-K1-hPD-1
# [4] = target: T3, human PD-1, full length, on cells; assay: cell-based or functional assay
# [5] = target: T3, human PD-1, full length, on cells; assay: cell-based or functional assay; remark: listed apart in the source
# [6] = target: T3, human PD-1, full length, on cells; assay: cell-based or functional assay; remark: listed apart in the source
# [7] = target: T3, human PD-1, full length, on cells; assay: cell-based or functional assay; remark: listed apart in the source
# T2 sequence (B0LAJ3 entry or part of it limits assumed): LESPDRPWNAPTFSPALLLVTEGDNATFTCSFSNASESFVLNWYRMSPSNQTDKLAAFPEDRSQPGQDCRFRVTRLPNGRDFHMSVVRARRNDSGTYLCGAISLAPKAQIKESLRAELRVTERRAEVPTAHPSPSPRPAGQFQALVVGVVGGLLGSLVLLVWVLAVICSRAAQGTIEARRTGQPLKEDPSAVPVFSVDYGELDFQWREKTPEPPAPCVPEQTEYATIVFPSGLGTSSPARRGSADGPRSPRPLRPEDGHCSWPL
# T3 sequence (Q15116 25-288): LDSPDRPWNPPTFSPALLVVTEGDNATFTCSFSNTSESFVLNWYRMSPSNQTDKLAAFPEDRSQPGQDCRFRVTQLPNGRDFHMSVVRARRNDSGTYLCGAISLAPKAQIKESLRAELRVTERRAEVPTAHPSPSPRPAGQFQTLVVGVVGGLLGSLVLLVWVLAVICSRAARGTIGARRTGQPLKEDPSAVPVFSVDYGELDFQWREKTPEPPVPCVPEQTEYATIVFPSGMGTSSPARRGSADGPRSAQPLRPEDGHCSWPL
# T1 sequence (Q15116 25-167): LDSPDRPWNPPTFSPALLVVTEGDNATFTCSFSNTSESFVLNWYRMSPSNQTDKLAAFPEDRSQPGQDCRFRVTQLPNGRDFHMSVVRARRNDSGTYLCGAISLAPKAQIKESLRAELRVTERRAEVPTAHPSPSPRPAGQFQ
Binder,MFI at 0.0316 nM [2] [MFI],MFI at 0.1 nM [2] [MFI],MFI at 0.316 nM [2] [MFI],MFI at 1 nM [2] [MFI],MFI at 3.16 nM [2] [MFI],MFI at 10 nM [2] [MFI],MFI at 31.6 nM [2] [MFI],MFI at 100 nM [2] [MFI],also measured
"chimeric anti-PD-1 antibody 32B5C7 (antibody, V domains shown) VH: EVQLLESGGGLVQPGGSLRLSCAASGFTFSSYAMSWVRQAPGKGLEWVSTISGSGGTTYYADSVKGRFTISRDNSKNTLYLQMNSLRAEDTAVYYCTLTGDPDYWGQGTLVTVSS VL: EIVLTQSPATLSLSPGERATLSCRASQSVSSYLAWYQQKPGQAPRLLIYDASKRATGIPARFSGSGSGTDFTLTISSLEPEDFAVYYCQQRNNWPLTFGGGTKVEIK",2.2,13.7,25.8,46.3,89,174,151,150,Kd [1]: 0.045 nM; koff [1]: 9.64e-06 s⁻¹; kon [1]: 212000 M⁻¹ s⁻¹
"fully human anti-PD-1 antibody 32B5C7 (antibody, human IgG4 S228P, kappa, V domains shown) VH: EVQLLESGGGLVQPGGSLRLSCAASGFTFSSYAMSWVRQAPGKGLEWVSTISGSGGTTYYADSVKGRFTISRDNSKNTLYLQMNSLRAEDTAVYYCTLTGDPDYWGQGTLVTVSS VL: EIVLTQSPATLSLSPGERATLSCRASQSVSSYLAWYQQKPGQAPRLLIYDASKRATGIPARFSGSGSGTDFTLTISSLEPEDFAVYYCQQRNNWPLTFGGGTKVEIKR",–,–,–,–,–,–,–,–,MFI at 0.01 nM [3]: 2.8 MFI
"chimeric anti-PD-1 antibody 223G6B5 (antibody, V domains shown) VH: QVQLQESGPGLVKPSETLSLTCAVSGHSIRGSYFWGWIRQPPGRGLEWIGSIYHSGSTYTNPSLKSRATISVDTSKNQFSLKLNSVTAADTAVYYCARDLDIATTRDYWGQGTLVTVSS VL: DIQLTQSPSFLSASVGDRVTIICRASQGINNYLAWYQQKPGKAPKLLIYAASTLQSGVPSRFSGSGSGTEFTLTISSLQPEDFATYYCQQLDSYPRTFGQGTKVEIKR",–,50.6,–,475,–,2120,–,2340,–
"chimeric anti-PD-1 antibody 226C3A7 (antibody, V domains shown) VH: QVQLQQSGPGLVNPSQTLSLTCAISGDSVSSNSGAWNWIRQSPSRGLEWLGRTYYRSKWYNDYGISVQSRITINPDTSKNHFSLQLNSVTPEDTAVYYCARDPYYYGSGSYFDYWGQGTLVTVSS VL: EIVMTQSPATLSVSPGERVTLSCRASLSVNSNLAWYQQKPGQAPRLLIYDTSTRATGVPARFSGSGSGTEFTLTISSLQSEDFAVYYCQQYHYWPLTFGGGTKVEIK",3.3,3.3,3.6,5.8,28,221,848,933,–
"chimeric anti-PD-1 antibody 204C5E12 (antibody, V domains shown) VH: QVQLVESGGGVVQPGRSLRLSCAASGFSFSYYGMHWVRQAPGKGLEWVAVIWYDGSNKYYADSVKGRFTISRDNSKNTLYLQMNSLRAEDTAVYYCASGITLVRGADYYYNYDMDVWGQGTTVTVSS VL: not shown",2.9,3.1,3.1,5.1,23.4,156,773,944,–
"chimeric anti-PD-1 antibody 21G8F11 (antibody, V domains shown) VH: EVQLLESGGGLAQPGGSLRLSCAASGFSFNTYLMHWVRQAPGKGLEWVSAISGGGGNTYYADSVKGRFTISRDNSKNTLYLQMNSLRAEDTAVYYCAKENRIPVAPFDYWGQGTLVTVSS VL: DIQMTQSPSTLSASVGDRVTITCRASQSISTWLAWYQQKPGKAPKLLIYKASSLESGVPSRFSGSGSGTEFTLTISSLQPDDLATYYCQQYNSFSWTFGQGTKVEIK",–,23.4,–,156,–,773,–,944,"IL-2 release, mixed lymphocyte reaction (PBMC donor-2), antibody 0.001 µg/mL [4]: 30 pg/mL; IL-2 release, mixed lymphocyte reaction (PBMC donor-2), antibody 0.01 µg/mL [4]: 43.4 pg/mL; IL-2 release, mixed lymphocyte reaction (PBMC donor-2), antibody 0.1 µg/mL [4]: 74.2 pg/mL; IL-2 release, mixed lymphocyte reaction (PBMC donor-2), antibody 1 µg/mL [4]: 103 pg/mL; IL-2 release, mixed lymphocyte reaction (PBMC donor-1), antibody 0.001 µg/mL [5]: 33.1 pg/mL; IL-2 release, mixed lymphocyte reaction (PBMC donor-1), antibody 0.01 µg/mL [5]: 48.9 pg/mL; IL-2 release, mixed lymphocyte reaction (PBMC donor-1), antibody 0.1 µg/mL [5]: 106 pg/mL; IL-2 release, mixed lymphocyte reaction (PBMC donor-1), antibody 1 µg/mL [5]: 65.6 pg/mL; IFN-γ release, mixed lymphocyte reaction (PBMC donor-2), antibody 0.001 µg/mL [6]: 2090 pg/mL; IFN-γ release, mixed lymphocyte reaction (PBMC donor-2), antibody 0.01 µg/mL [6]: 2720 pg/mL; IFN-γ release, mixed lymphocyte reaction (PBMC donor-2), antibody 0.1 µg/mL [6]: 2630 pg/mL; IFN-γ release, mixed lymphocyte reaction (PBMC donor-2), antibody 1 µg/mL [6]: 2830 pg/mL; IFN-γ release, mixed lymphocyte reaction (PBMC donor-1), antibody 0.001 µg/mL [7]: 3010 pg/mL; IFN-γ release, mixed lymphocyte reaction (PBMC donor-1), antibody 0.01 µg/mL [7]: 5910 pg/mL; IFN-γ release, mixed lymphocyte reaction (PBMC donor-1), antibody 0.1 µg/mL [7]: 15300 pg/mL; IFN-γ release, mixed lymphocyte reaction (PBMC donor-1), antibody 1 µg/mL [7]: 15200 pg/mL"
"chimeric anti-PD-1 antibody 76G5B3 (antibody, V domains shown) VH: QVQLVESGGGVVQPGRSLRLSCAASGFTFSDYGFHWVRQAPGKGLEWVAVIWYDGSNEYYTDSVKGRFTISRDNSKNTLYLQMNSLRAEDTAMYFCVVNPFDYWGQGTLVTVSS VL: DIQMTQSPSSLSAFVGDRVTITCRASQGINHYLAWYQQKPGKAPNLLILAASTLLSGVPSRFGGRGSGTDFTLIISSLQPEDVATYYCQKYDSAPYTFGQGTKLEIK",2.3,28.4,59.3,132,217,326,314,297,"Kd [1]: 0.032 nM; koff [1]: 1.3e-05 s⁻¹; kon [1]: 408000 M⁻¹ s⁻¹; IL-2 release, mixed lymphocyte reaction (PBMC donor-2), antibody 0.001 µg/mL [4]: 93.3 pg/mL; IL-2 release, mixed lymphocyte reaction (PBMC donor-2), antibody 0.01 µg/mL [4]: 145 pg/mL; IL-2 release, mixed lymphocyte reaction (PBMC donor-2), antibody 0.1 µg/mL [4]: 182 pg/mL; IL-2 release, mixed lymphocyte reaction (PBMC donor-2), antibody 1 µg/mL [4]: 194 pg/mL; IL-2 release, mixed lymphocyte reaction (PBMC donor-1), antibody 0.001 µg/mL [5]: 88.8 pg/mL; IL-2 release, mixed lymphocyte reaction (PBMC donor-1), antibody 0.01 µg/mL [5]: 131 pg/mL; IL-2 release, mixed lymphocyte reaction (PBMC donor-1), antibody 0.1 µg/mL [5]: 148 pg/mL; IL-2 release, mixed lymphocyte reaction (PBMC donor-1), antibody 1 µg/mL [5]: 140 pg/mL; IFN-γ release, mixed lymphocyte reaction (PBMC donor-2), antibody 0.001 µg/mL [6]: 1810 pg/mL; IFN-γ release, mixed lymphocyte reaction (PBMC donor-2), antibody 0.01 µg/mL [6]: 5520 pg/mL; IFN-γ release, mixed lymphocyte reaction (PBMC donor-2), antibody 0.1 µg/mL [6]: 12700 pg/mL; IFN-γ release, mixed lymphocyte reaction (PBMC donor-2), antibody 1 µg/mL [6]: 15900 pg/mL; IFN-γ release, mixed lymphocyte reaction (PBMC donor-1), antibody 0.001 µg/mL [7]: 2900 pg/mL; IFN-γ release, mixed lymphocyte reaction (PBMC donor-1), antibody 0.01 µg/mL [7]: 7530 pg/mL; IFN-γ release, mixed lymphocyte reaction (PBMC donor-1), antibody 0.1 µg/mL [7]: 12100 pg/mL; IFN-γ release, mixed lymphocyte reaction (PBMC donor-1), antibody 1 µg/mL [7]: 8110 pg/mL"
